B1: GbAH (Granulibacter bethesdensis allophanate hydrolase), wt (Granulibacter bethesdensis CGDNIH1) (protein)
chain: MTLSMTLEGIQAFLAQGGTIEQVVTEAYDRITRYGDKAVWIALRPREEVLAEARALDASPATGKPLYGVPFAVKDNIDVAGLPCSAACPAFTYEPDRDATVVARLRAAGAIVLGKTNLDQFATGLVGTRSPFGAPRCVFDQDYISGGSSSGSAVAVAAGLVAFSLGTDTAGSGRVPAAFNNLVGVKPTKGLLSTSGVVPACRSLDCVTVFAASVAEGTLIRRIAEGYDAADPYSRPSQKRRLPHVGLRVGVPRQDQREFYGNTAYAALYQRALDEMISLDAELVEIDFAPFRDAAKLLYGGPWVAERLEAVGDHLSRAPDSFDPVVRSIVETAKTLSAVDAFRGQYELAALTQQANAQWARMDILLLPTAPTIHKVEAVMADPVRLNSQLGHYTNFVNLLDCAAIAVPAGFIETGLPFGVTLVGPAFSDDSMALIADRLHRRLEPGYGQDRASLPDPVLEETNPEQIALAVVGAHLSGQPLHWQLTERNATLVARTRTAPEYRLYALAETIPPKPGLVADPDFTGDGIEIELWSMDAEAFGTFTALVPAPLAIGTLRLADGTSVKGFVCEPAGLVGAQDITRFGGWRAYLAQ

Assays:
NC(=O)NC(=O)O = assay: purified protein; format: biochemical, Granulibacter bethesdensis; conditions: 50 mM HEPES pH 7.4, 50 mM NaCl, 1 mM EGTA, 25 °C
purified protein = substrate: NC(=O)NC(=O)O; assay: purified protein; format: biochemical, Granulibacter bethesdensis; conditions: 50 mM HEPES pH 7.4, 50 mM NaCl, 1 mM EGTA, 25 °C; remark: listed apart in the source

Molecule | Km (NC(=O)NC(=O)O) | kcat (NC(=O)NC(=O)O) | kcat/Km (NC(=O)NC(=O)O) | Km (purified protein) | kcat (purified protein) | kcat/Km (purified protein)
GbAH (Granulibacter bethesdensis allophanate hydrolase), wt (Granulibacter bethesdensis CGDNIH1; Y299A) | 3000 ± 400 µM | 0.071 ± 0.002 s⁻¹ | 24 ± 3 M⁻¹ s⁻¹ |  |  | 
GbAH (Granulibacter bethesdensis allophanate hydrolase), wt (Granulibacter bethesdensis CGDNIH1; Y299F) | 1200 ± 100 µM | 0.042 ± 0.001 s⁻¹ | 35 ± 3 M⁻¹ s⁻¹ |  |  | 
B1 |  |  |  | 100 ± 2 µM | 18 ± 1 s⁻¹ | 180000 ± 3000 M⁻¹ s⁻¹

From publication PMC3568674
